Test results from patent publication US20120329707A1 (INDIANA UNIVERSITY RESEARCH AND TECHNOLOGY, published 2012).
Numbered stars: 1 amine (or outer) side, 2 acyl side, 3 side chain; on linkers, the order of the positions; unused ones are H or OH. Square brackets hold non-standard residues; d marks the D form. Primed or numbered codes have the meaning given here. Side chains are listed from the residue outwards. Ends that are not written are not given here. * marks the point of attachment. 40K‑TE PEG″ = 40 kDa PEG bound to Cys via thioether made from an iodoacetyl-functionalised PEG; γGlu = O=C(O)[C@H](CCC(=O)[*:2])N[*:1]; Desaminohistidyl = O=C(CCc1c[nH]cn1)*; Palmitoyl = CCCCCCCCCCCCCCCC(=O)*; Aib = CC(C)(N)C(=O)O

B1: peptide of SEQ ID NO: 59 (peptide)
peptide: H[Aib]QGTFTSDK(Palmitoyl)SKYLDERRA[Aib]DFVQWLMNT-NH2
modifications: N-terminus assumed
SMILES: CCCCCCCCCCCCCCCC(=O)NCCCC[C@H](NC(=O)[C@H](CC(=O)O)NC(=O)[C@H](CO)NC(=O)[C@@H](NC(=O)[C@H](Cc1ccccc1)NC(=O)[C@@H](NC(=O)CNC(=O)[C@H](CCC(N)=O)NC(=O)C(C)(C)NC(=O)[C@@H](N)Cc1c[nH]cn1)[C@@H](C)O)[C@@H](C)O)C(=O)N[C@@H](CO)C(=O)N[C@@H](CCCCN)C(=O)N[C@@H](Cc1ccc(O)cc1)C(=O)N[C@@H](CC(C)C)C(=O)N[C@@H](CC(=O)O)C(=O)N[C@@H](CCC(=O)O)C(=O)N[C@@H](CCCNC(=N)N)C(=O)N[C@@H](CCCNC(=N)N)C(=O)N[C@@H](C)C(=O)NC(C)(C)C(=O)N[C@@H](CC(=O)O)C(=O)N[C@@H](Cc1ccccc1)C(=O)N[C@H](C(=O)N[C@@H](CCC(N)=O)C(=O)N[C@@H](Cc1c[nH]c2ccccc12)C(=O)N[C@@H](CC(C)C)C(=O)N[C@@H](CCSC)C(=O)N[C@@H](CC(N)=O)C(=O)N[C@H](C(N)=O)[C@@H](C)O)C(C)C
B2: peptide of SEQ ID NO: 24 (peptide)
peptide: H[Aib]QGTFTSDK([γGlu-γGlu-Palmitoyl])SKYLD[Aib]RAAQDFVQWLKDGRG-NH2
modifications: N-terminus assumed
SMILES: CCCCCCCCCCCCCCCC(=O)N[C@@H](CCC(=O)N[C@@H](CCC(=O)NCCCC[C@H](NC(=O)[C@H](CC(=O)O)NC(=O)[C@H](CO)NC(=O)[C@@H](NC(=O)[C@H](Cc1ccccc1)NC(=O)[C@@H](NC(=O)CNC(=O)[C@H](CCC(N)=O)NC(=O)C(C)(C)NC(=O)[C@@H](N)Cc1c[nH]cn1)[C@@H](C)O)[C@@H](C)O)C(=O)N[C@@H](CO)C(=O)N[C@@H](CCCCN)C(=O)N[C@@H](Cc1ccc(O)cc1)C(=O)N[C@@H](CC(C)C)C(=O)N[C@@H](CC(=O)O)C(=O)NC(C)(C)C(=O)N[C@@H](CCCNC(=N)N)C(=O)N[C@@H](C)C(=O)N[C@@H](C)C(=O)N[C@@H](CCC(N)=O)C(=O)N[C@@H](CC(=O)O)C(=O)N[C@@H](Cc1ccccc1)C(=O)N[C@H](C(=O)N[C@@H](CCC(N)=O)C(=O)N[C@@H](Cc1c[nH]c2ccccc12)C(=O)N[C@@H](CC(C)C)C(=O)N[C@@H](CCCCN)C(=O)N[C@@H](CC(=O)O)C(=O)NCC(=O)N[C@@H](CCCNC(=N)N)C(=O)NCC(N)=O)C(C)C)C(=O)O)C(=O)O
B3: peptide of SEQ ID NO: 58 (peptide)
peptide: H[Aib]QGTFTSDK(Palmitoyl)SKYLDSRRA[Aib]DFVQWLMNT-NH2
modifications: N-terminus assumed
SMILES: CCCCCCCCCCCCCCCC(=O)NCCCC[C@H](NC(=O)[C@H](CC(=O)O)NC(=O)[C@H](CO)NC(=O)[C@@H](NC(=O)[C@H](Cc1ccccc1)NC(=O)[C@@H](NC(=O)CNC(=O)[C@H](CCC(N)=O)NC(=O)C(C)(C)NC(=O)[C@@H](N)Cc1c[nH]cn1)[C@@H](C)O)[C@@H](C)O)C(=O)N[C@@H](CO)C(=O)N[C@@H](CCCCN)C(=O)N[C@@H](Cc1ccc(O)cc1)C(=O)N[C@@H](CC(C)C)C(=O)N[C@@H](CC(=O)O)C(=O)N[C@@H](CO)C(=O)N[C@@H](CCCNC(=N)N)C(=O)N[C@@H](CCCNC(=N)N)C(=O)N[C@@H](C)C(=O)NC(C)(C)C(=O)N[C@@H](CC(=O)O)C(=O)N[C@@H](Cc1ccccc1)C(=O)N[C@H](C(=O)N[C@@H](CCC(N)=O)C(=O)N[C@@H](Cc1c[nH]c2ccccc12)C(=O)N[C@@H](CC(C)C)C(=O)N[C@@H](CCSC)C(=O)N[C@@H](CC(N)=O)C(=O)N[C@H](C(N)=O)[C@@H](C)O)C(C)C
B4: peptide of SEQ ID NO: 23 (peptide)
peptide: H[Aib]QGTFTSDK([γGlu-γGlu-Palmitoyl])SKYLD[Aib]RAAQDFVQWLMKGRG-NH2
modifications: N-terminus assumed
SMILES: CCCCCCCCCCCCCCCC(=O)N[C@@H](CCC(=O)N[C@@H](CCC(=O)NCCCC[C@H](NC(=O)[C@H](CC(=O)O)NC(=O)[C@H](CO)NC(=O)[C@@H](NC(=O)[C@H](Cc1ccccc1)NC(=O)[C@@H](NC(=O)CNC(=O)[C@H](CCC(N)=O)NC(=O)C(C)(C)NC(=O)[C@@H](N)Cc1c[nH]cn1)[C@@H](C)O)[C@@H](C)O)C(=O)N[C@@H](CO)C(=O)N[C@@H](CCCCN)C(=O)N[C@@H](Cc1ccc(O)cc1)C(=O)N[C@@H](CC(C)C)C(=O)N[C@@H](CC(=O)O)C(=O)NC(C)(C)C(=O)N[C@@H](CCCNC(=N)N)C(=O)N[C@@H](C)C(=O)N[C@@H](C)C(=O)N[C@@H](CCC(N)=O)C(=O)N[C@@H](CC(=O)O)C(=O)N[C@@H](Cc1ccccc1)C(=O)N[C@H](C(=O)N[C@@H](CCC(N)=O)C(=O)N[C@@H](Cc1c[nH]c2ccccc12)C(=O)N[C@@H](CC(C)C)C(=O)N[C@@H](CCSC)C(=O)N[C@@H](CCCCN)C(=O)NCC(=O)N[C@@H](CCCNC(=N)N)C(=O)NCC(N)=O)C(C)C)C(=O)O)C(=O)O
B5: peptide of SEQ ID NO: 22 (peptide)
peptide: H[Aib]QGTFTSDK([γGlu-γGlu-Palmitoyl])SKYLD[Aib]RAAQDFVQWLMDGRG-NH2
modifications: N-terminus assumed
SMILES: CCCCCCCCCCCCCCCC(=O)N[C@@H](CCC(=O)N[C@@H](CCC(=O)NCCCC[C@H](NC(=O)[C@H](CC(=O)O)NC(=O)[C@H](CO)NC(=O)[C@@H](NC(=O)[C@H](Cc1ccccc1)NC(=O)[C@@H](NC(=O)CNC(=O)[C@H](CCC(N)=O)NC(=O)C(C)(C)NC(=O)[C@@H](N)Cc1c[nH]cn1)[C@@H](C)O)[C@@H](C)O)C(=O)N[C@@H](CO)C(=O)N[C@@H](CCCCN)C(=O)N[C@@H](Cc1ccc(O)cc1)C(=O)N[C@@H](CC(C)C)C(=O)N[C@@H](CC(=O)O)C(=O)NC(C)(C)C(=O)N[C@@H](CCCNC(=N)N)C(=O)N[C@@H](C)C(=O)N[C@@H](C)C(=O)N[C@@H](CCC(N)=O)C(=O)N[C@@H](CC(=O)O)C(=O)N[C@@H](Cc1ccccc1)C(=O)N[C@H](C(=O)N[C@@H](CCC(N)=O)C(=O)N[C@@H](Cc1c[nH]c2ccccc12)C(=O)N[C@@H](CC(C)C)C(=O)N[C@@H](CCSC)C(=O)N[C@@H](CC(=O)O)C(=O)NCC(=O)N[C@@H](CCCNC(=N)N)C(=O)NCC(N)=O)C(C)C)C(=O)O)C(=O)O

Tests used:
Experiment in all cases: cell-based or functional assay
[1] = molecular target: GLP-1 receptor
[2] = molecular target: T1, GIP receptor
T1 sequence (P48546 whole entry, species assumed, looked up): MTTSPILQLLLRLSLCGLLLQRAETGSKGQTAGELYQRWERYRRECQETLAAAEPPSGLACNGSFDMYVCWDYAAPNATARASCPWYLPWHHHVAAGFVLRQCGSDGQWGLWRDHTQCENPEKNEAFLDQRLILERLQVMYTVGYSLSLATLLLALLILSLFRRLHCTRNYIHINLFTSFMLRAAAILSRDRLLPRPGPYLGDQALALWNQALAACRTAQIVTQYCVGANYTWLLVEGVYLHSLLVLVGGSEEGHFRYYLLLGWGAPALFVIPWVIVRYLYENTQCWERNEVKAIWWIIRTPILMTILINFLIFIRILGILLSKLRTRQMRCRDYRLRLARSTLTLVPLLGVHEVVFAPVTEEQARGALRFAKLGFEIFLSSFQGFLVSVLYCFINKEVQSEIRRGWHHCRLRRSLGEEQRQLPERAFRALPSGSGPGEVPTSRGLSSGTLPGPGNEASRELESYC

[3] = molecular target: glucagon receptor

Row | Binder | EC50 (nM) at GLP-1 receptor [1] | EC50 (nM) at GIP receptor [2] | EC50 (nM) at glucagon receptor [3]
1 | [Desaminohistidyl][dS]QGTFTSDK([γGlu-Palmitoyl])SKYLDERAAQDFVQWLLDT-NH2 [peptide of SEQ ID NO: 20] | 0.004 nM | 1.38 nM | 0.006 nM
2 | B1 | 0.01 nM | 7.48 nM | 0.051 nM
3 | H[Aib]QGTFTSDYSKYLDEKRA[Aib]EFVC(40K‑TE PEG″)WLLDE-NH2 [peptide of SEQ ID NO: 16] | 0.487 nM | 465 nM | 0.563 nM
4 | HXQGTFTSDKSKYLDERAAQDFVQWLMDT (aib at 2; Lys 10 with γEγEC16; C-terminal amide) [peptide of SEQ ID NO: 61] | 0.004 nM | 0.676 nM | 0.009 nM
5 | H[dS]QGTFTSDK([γGlu-Palmitoyl])SKYLDERAAQDFVQWLLDGRG-NH2 [peptide of SEQ ID NO: 19] | 0.002 nM | 0.812 nM | 0.004 nM
6 | H[dA]QGTFTSDK([γGlu-Palmitoyl])SKYLDERAAQDFVQWLLDT-NH2 [peptide of SEQ ID NO: 56] | 0.02 nM | 1.64 nM | 0.006 nM
7 | B2 | 0.004 nM | 1.46 nM | 0.021 nM
8 | B3 | 0.025 nM | 35.7 nM | 0.09 nM
9 | B4 | 0.004 nM | 1.58 nM | 0.023 nM
10 | B5 | 0.002 nM | 2.37 nM | 0.005 nM
11 | H[Aib]QGTFTSDK([γGlu-Palmitoyl])SKYLD[Aib]RAAQDFVQWLMKTK[dE]-OH [peptide of SEQ ID NO: 60] | 0.033 nM | 147 nM | 4.6 nM
12 | Ac-H[dS]QGTFTSDK([γGlu-Palmitoyl])SKYLDERAAQDFVQWLLDT-NH2 [peptide of SEQ ID NO: 21] | 0.009 nM | 4.5 nM | 0.005 nM
